Data on 1 molecule can be found in PMC9808371, “Extracellular Galectin 4 Drives Immune Evasion and Promotes T-cell Apoptosis in Pancreatic Cancer” (Cancer Immunology Research, 2022).

The target of test [1] is T1, human recombinant CD3ε/δ heterodimer (human, UniProt P07766 23-126; P04234 22-105, N-linked glycosylations (sites not given)).
T1 chain 1: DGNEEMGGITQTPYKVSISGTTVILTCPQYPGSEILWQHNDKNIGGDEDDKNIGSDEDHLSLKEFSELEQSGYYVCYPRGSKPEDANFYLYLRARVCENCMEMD
T1 chain 2: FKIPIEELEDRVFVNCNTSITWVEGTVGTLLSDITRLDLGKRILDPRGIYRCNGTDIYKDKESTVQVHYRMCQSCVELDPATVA
In words: SPR. For orientation: SPR reads the build-up and loss of mass on a sensor chip optically.

For test [2], the target named is T2, human recombinant CD3ε/γ heterodimer (human, UniProt P07766 23-126; P09693 23-116).
T2 chain 1: T1 chain 1
T2 chain 2: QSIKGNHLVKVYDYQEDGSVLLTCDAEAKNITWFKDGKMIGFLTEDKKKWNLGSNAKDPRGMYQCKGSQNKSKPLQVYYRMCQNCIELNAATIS
In words: SPR.

Test [3] addresses T3, human recombinant CD3ε/δ heterodimer (human, UniProt P07766 23-126; P04234 22-105, N-linked glycosylations (sites not given)).
T3 construct: CD3 epsilon chain, human; CD3 delta chain, human; it is probably made of the extracellular domains with vendor tags (surmise); The vendor's catalogue entry would give them; also called human CD3ε/δ; CD3δ/ε; source: bought: ACROBiosystems, CDD-H52wa-100 μg
Put plainly: SPR; CD3 heterodimers amine-coupled at pH 4 to CM5 chips (mouse CD3ε/δ 3,900 RU, human CD3ε/δ 9,800 RU, human CD3ε/γ 8,900 RU); gal 4 as analyte, 2-fold dilutions 16 to 0.5 μmol/L, 120 s association, 120 s dissociation; 25°C; 10 mmol/L phosphate pH 7.4, 140 mmol/L NaCl, 0.27 mmol/L KCl, 0.05% Tween 20; Biacore T-200. As to conditions: both partners purified.

B1: human recombinant galectin 4 (natural protein, UniProt P56470 1-323, looked up)
chain: MAYVPAPGYQPTYNPTLPYYQPIPGGLNVGMSVYIQGVASEHMKRFFVNFVVGQDPGSDVAFHFNPRFDGWDKVVFNTLQGGKWGSEERKRSMPFKKGAAFELVFIVLAEHYKVVVNGNPFYEYGHRLPLQMVTHLQVDGDLQLQSINFIGGQPLRPQGPPMMPPYPGPGHCHQQLNSLPTMEGPPTFNPPVPYFGRLQGGLTARRTIIIKGYVPPTGKSFAINFKVGSSGDIALHINPRMGNGTVVRNSLLNGSWGSEEKKITHNPFGPGQFFDLSIRCGLDRFKVYANGQHLFDFAHRLSAFQRVDTLEIQGDVTLSYVQI
notes: galectin 4 (LGALS4), Homo sapiens, cDNA NM_006149.4 recloned from pcDNA3.1-C-(k)DYK into pET-His1a (NcoI + Acc65I); The Hisx6-TEV tag was removed before use; also called gal 4; hgal 4; source: E. coli Rosetta (DE3), purified (NiNTA, tag removal with TEV protease, second NiNTA run); not shown: His6, N-terminal, cleaved
By Kd is commonly meant the constant that tells how readily two partners part at equilibrium. With B1, the Kd in test [1] is around 1 µM; in test [2], around 10 µM. Besides, in test [3], the “fold affinity against CD3γ/ε” value is 10 fold.
